We go through two substances from publication PMC9293896.

For orientation: Kd means a measure of binding affinity in units of concentration.

Changes are numbered by the printed parent chain.

The target of assay [1] is wild-type human oxytocin receptor, full length, N-terminal SNAP-tag (human) (UniProt P30559). The assay is described as follows: AlphaScreen or HTRF; whole-cell saturation binding; SNAP-tagged receptor on transfected HEK293T/17 cells labelled with SNAP-Lumi4-Tb; concentration range of HiLyte Fluor 488-Orn8 oxytocin, 1 h at room temperature in 20 mM Hepes pH 7.5, 100 mM KCl, 3 mM MgCl2, 0.05% BSA; nonspecific binding with 1000-fold excess of unlabelled oxytocin; one-site saturation fit. (In general: In Alpha technology, singlet oxygen from a donor bead excites a nearby acceptor bead.)

Assay [2] has as its target T1, truncated V1AR (residues 1-378, T378K) G337A, N-terminal SNAP-tag (human) (UniProt P37288).
T1 sequence: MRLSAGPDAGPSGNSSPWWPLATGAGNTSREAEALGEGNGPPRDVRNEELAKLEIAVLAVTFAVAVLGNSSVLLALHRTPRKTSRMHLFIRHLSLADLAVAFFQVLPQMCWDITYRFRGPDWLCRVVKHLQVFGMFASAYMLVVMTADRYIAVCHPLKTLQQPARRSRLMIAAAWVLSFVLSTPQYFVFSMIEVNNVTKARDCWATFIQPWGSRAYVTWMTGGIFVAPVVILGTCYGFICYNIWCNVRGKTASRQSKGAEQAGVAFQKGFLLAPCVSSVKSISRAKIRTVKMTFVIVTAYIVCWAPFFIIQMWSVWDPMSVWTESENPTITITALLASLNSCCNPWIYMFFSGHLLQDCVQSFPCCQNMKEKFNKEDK
The description is as above.

Assay [3] has as its target OTR-D153Y, N-terminal SNAP-tag (human) (UniProt P30559). The description is as above.
Assay [4] deals with OTR A318G, N-terminal SNAP-tag (human) (UniProt P30559). Described as above.
Assay [5] has as its target T2, truncated V1AR (residues 1-378 with C-terminal mutation T378K), N-terminal SNAP-tag (human) (UniProt P37288).
T2 sequence: T1 sequence with A337G
The description is as above.

The target in assay [6] is OTR W188A, N-terminal SNAP-tag (human) (UniProt P30559).
In assay [7] the target is wild-type human oxytocin receptor, full length, N-terminal SNAP-tag (human) (UniProt P30559).
The target of assay [8] is OTR Q92A, N-terminal SNAP-tag (human) (UniProt P30559).
Assay [9] has as its target OTR F291A, N-terminal SNAP-tag (human) (UniProt P30559).
Assay [10] deals with T1, truncated V1AR (residues 1-378, T378K) G337A, N-terminal SNAP-tag (human).
Assay [11] deals with OTR Q171A, N-terminal SNAP-tag (human) (UniProt P30559).
The target in assay [12] is OTR I201A, N-terminal SNAP-tag (human) (UniProt P30559).
Assay [13] addresses OTR-D153Y, N-terminal SNAP-tag (human) (UniProt P30559).
Assay [14] addresses OTR K116A, N-terminal SNAP-tag (human) (UniProt P30559).
Assay [15] deals with OTR F175A, N-terminal SNAP-tag (human) (UniProt P30559).
Assay [16] deals with OTR Q295A, N-terminal SNAP-tag (human) (UniProt P30559).
Assay [17] concerns the target OTR Q96A, N-terminal SNAP-tag (human) (UniProt P30559).
The target in assay [18] is OTR L316A, N-terminal SNAP-tag (human) (UniProt P30559).
The target in assay [19] is OTR A318G, N-terminal SNAP-tag (human) (UniProt P30559).
Assay [20] deals with T2, truncated V1AR (residues 1-378 with C-terminal mutation T378K), N-terminal SNAP-tag (human).
Assay [21] addresses OTR Q171N, N-terminal SNAP-tag (human) (UniProt P30559).
Assay [22] deals with OTR Q119A, N-terminal SNAP-tag (human) (UniProt P30559).
In assay [23] the target is OTR F292A, N-terminal SNAP-tag (human) (UniProt P30559).

Chain of oxytocin (P01178 whole entry, looked up): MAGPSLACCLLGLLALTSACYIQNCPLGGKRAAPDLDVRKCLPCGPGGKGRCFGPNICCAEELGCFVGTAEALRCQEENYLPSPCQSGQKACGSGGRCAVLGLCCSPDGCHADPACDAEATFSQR

For “HiLyte Fluor 488-Orn^8 oxytocin (from UniProt P01178 20-28) (peptide)”, the Kd came out at 1.4 nM in assay [1]; 20.9 nM in assay [2]; 6.4 nM in assay [3]; 0.9 nM in assay [4]; 9.3 nM in [5].
In the case of “oxytocin (from UniProt P01178 20-28) (peptide)”, the OT-induced IP1 accumulation (HTRF IP-One) in transfected HEK293T cells, EC50 in assay [6] turned out to be 156 nM; in [7], 8.4 nM; in assay [8], 222 nM; in assay [9] it was 542 nM; in assay [10] it was 250 nM; in assay [11] it was 992 nM. In addition, the OT-induced IP1 accumulation (HTRF IP-One) in transfected HEK293T cells, EC50 worked out at 89.5 nM in [12]; 42.9 nM in assay [13]; 6.1 nM in [14]; 3480 nM in assay [15]; 51.3 nM in assay [16]; 1540 nM in [17]. In addition, the OT-induced IP1 accumulation (HTRF IP-One) in transfected HEK293T cells, EC50 in assay [18] was found to be 21.9 nM; in [19] it was 4.6 nM; in assay [20] it was 158 nM; in [21] it was 39.1 nM; in [22], 444 nM; in [23], 6.1 nM.
